In publication PMC7527217 (Science Advances, 2020):
Like-named read-outs stand apart in the source and are kept apart here. Values belong to the molecule of their own block, whether it stands above or below them.

Legend:
[1] = biological target: recombinant trBcl-2L2 (Trichoplax adhaerens Bcl-2-like protein 2), lacking the 7 N-terminal and 34 C-terminal residues (Trichoplax adhaerens); experiment: ITC
[2] = biological target: recombinant trBcl-2L1 (Trichoplax adhaerens Bcl-2-like protein 1), lacking the 33 N-terminal and 29 C-terminal residues (Trichoplax adhaerens); experiment: ITC
Flag-tagged trBcl-2L1 = biological target: T1, Flag-tagged trBcl-2L1 (Trichoplax adhaerens, UniProt A0A1B1IJP0 1-215); experiment: FRET or BRET
T1 sequence (looked up): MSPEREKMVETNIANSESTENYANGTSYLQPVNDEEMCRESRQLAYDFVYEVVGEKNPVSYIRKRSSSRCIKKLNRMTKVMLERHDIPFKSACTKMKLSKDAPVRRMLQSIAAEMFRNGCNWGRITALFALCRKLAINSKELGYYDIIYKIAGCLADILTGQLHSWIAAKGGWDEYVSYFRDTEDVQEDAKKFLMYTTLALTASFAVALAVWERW

Flag-tagged trBcl-2L2 = biological target: T2, Flag-tagged trBcl-2L2 (Trichoplax adhaerens, UniProt A0A1B1IJN9 1-211); experiment: FRET or BRET
T2 sequence (looked up): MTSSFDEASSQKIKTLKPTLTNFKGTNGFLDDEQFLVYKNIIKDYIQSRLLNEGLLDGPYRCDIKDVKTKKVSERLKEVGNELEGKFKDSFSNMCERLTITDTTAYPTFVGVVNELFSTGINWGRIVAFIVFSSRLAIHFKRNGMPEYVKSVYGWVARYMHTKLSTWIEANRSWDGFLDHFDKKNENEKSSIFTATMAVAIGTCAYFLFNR

[3] = biological target: recombinant human Bcl-xL (residues 1 to 209, Δloop45 to 84) (human, UniProt Q07817-1 1-209, Δloop45 to 84); experiment: ITC
[4] = biological target: T3, recombinant human A1/Bfl-1 (residues 1 to 151) (human, UniProt Q16548 1-151); experiment: ITC
T3 sequence (looked up): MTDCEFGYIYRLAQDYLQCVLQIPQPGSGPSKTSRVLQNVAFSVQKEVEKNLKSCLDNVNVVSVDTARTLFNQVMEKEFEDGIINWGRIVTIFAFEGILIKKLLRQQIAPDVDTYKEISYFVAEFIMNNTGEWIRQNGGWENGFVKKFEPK

[5] = biological target: T4, recombinant human Bcl-w (residues 9 to 152) (human, UniProt Q92843 9-152); experiment: ITC
T4 sequence (looked up): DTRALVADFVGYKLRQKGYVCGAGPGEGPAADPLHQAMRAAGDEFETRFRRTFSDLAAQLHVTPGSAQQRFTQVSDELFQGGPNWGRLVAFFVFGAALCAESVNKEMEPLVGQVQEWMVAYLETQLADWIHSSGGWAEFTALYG

[6] = biological target: recombinant human Mcl-1 (residues 171 to 320) (human, UniProt Q07820 171-320); experiment: ITC
[7] = biological target: recombinant human Bcl-2 (residues 10 to 203) (human, UniProt P10415 10-203); experiment: ITC
[8] = biological target: recombinant trBcl-2L2 (Trichoplax adhaerens Bcl-2-like protein 2), lacking the 7 N-terminal and 34 C-terminal residues (Trichoplax adhaerens); experiment: ITC; remark: listed apart in the source
[9] = biological target: recombinant trBcl-2L1 (Trichoplax adhaerens Bcl-2-like protein 1), lacking the 33 N-terminal and 29 C-terminal residues (Trichoplax adhaerens); experiment: ITC; remark: listed apart in the source

recombinant human Bcl-2 (residues 10 to 203), sequence (P10415 10-203): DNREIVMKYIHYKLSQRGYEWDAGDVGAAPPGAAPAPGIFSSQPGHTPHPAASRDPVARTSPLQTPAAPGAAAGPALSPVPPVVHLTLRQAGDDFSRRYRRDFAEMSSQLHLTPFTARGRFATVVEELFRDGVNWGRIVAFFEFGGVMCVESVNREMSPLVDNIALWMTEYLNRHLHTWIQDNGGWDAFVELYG
recombinant human Mcl-1 (residues 171 to 320), sequence (Q07820 171-320): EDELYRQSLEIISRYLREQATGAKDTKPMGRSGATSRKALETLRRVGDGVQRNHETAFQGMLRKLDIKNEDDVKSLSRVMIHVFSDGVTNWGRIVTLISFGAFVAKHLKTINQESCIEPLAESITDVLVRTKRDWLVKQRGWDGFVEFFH

Molecule: hsBim BH3 peptide
- Kd [1]: 41 nM
- Kd [2]: 83 nM

Molecule: hsBid BH3 peptide
- Kd [1]: 170 nM
- Kd [2]: 124 nM

Molecule: hsPuma BH3 peptide
- Kd [1]: 81 nM
- Kd [2]: 5 nM

B1: EGFP-tagged trBak (natural protein, Trichoplax adhaerens, UniProt A0A1B1IJN7 1-251, looked up)
chain: MSSTITIAESLENGENNDEQEEANTSRSQFRVTRAQVIRRQLSANPAHLPVSEQEVINETSSIFRSFVVESYQAERDGGIIAEEVRSFADQVQSSSNQTITPSSPTSEIGRHLAQLGDSYSVRFQNEFRLMITHLDINPGTAYRTFAGVARRLFRDGISWRRIVTLMAFGYQIAIDVMRSGVQGFLSRICNFIVRFISGEHIANWIARQGGWRAARYEGLASPGWPAIIGVATAAAASVFGVLWLSGYFRE
- FRET efficacy (Flag-tagged trBcl-2L1): 11.2%
- FRET efficacy (Flag-tagged trBcl-2L2): 5.45%

Molecule: IEPTSPTIQVARTIRQIGDELDSDPHLN [trBax BH3 peptide]
- Kd [3]: 877 nM
- Kd [4]: 135 nM
- Kd [5]: 767 nM
- Kd [6]: 67 nM
- Kd [7]: 3060 nM
- Kd [8]: 728 nM
- Kd [9]: 426 nM

Other lines, results leading:

- Kd [1]: 15 nM
- Kd [2]: 7 nM
Molecule: hsBax BH3 peptide

- FRET efficacy (Flag-tagged trBcl-2L1): 5.84%
- FRET efficacy (Flag-tagged trBcl-2L2): 2.81%
B2: EGFP-tagged trBax (natural protein, Trichoplax adhaerens, UniProt A0A1B1IJP1 1-241, looked up)
chain: MADFTYVLITRSISTIFSSSCLIAMAHVKSVTSTPTTTTTTTTQSCPRREENLKEIAAESKKLFLDFIADRSAKDGQDQGCISQLTREHNELQIEPTSPTIQVARTIRQIGDELDSDPHLNGLLHKLHVTSSTAYSTFRRVAMRIFQDGQFNWGRIITLFFFGYRLTIRVLSESPIVEMIISWIARFIYEICSFWIAESGGWDAITQYIQQADWKNKYTLGLIAVGVLVTAFVTWQRYNSS

- Kd [3]: 197 nM
- Kd [4]: 13 nM
- binding result [5]: binds
- binding result [6]: binds
- Kd [7]: 45 nM
- Kd [8]: 563 nM
- Kd [9]: 1430 nM
Molecule: PSSPTSEIGRHLAQLGDSYSVRFQNE [trBak BH3 peptide]
